In US20070185028A1, “Compositions and methods for treatment of protein misfolding and protein aggregation diseases” (priority 2004, published 2007):

Key:
[1] = target: Human γD crystallin (human) (UniProt P07320); experiment: cell-based or functional assay
[2] = target: beta amyloid (UniProt P05067); experiment: cell-based or functional assay

Sequence of Human γD crystallin (human) (P07320 2-174 limits assumed): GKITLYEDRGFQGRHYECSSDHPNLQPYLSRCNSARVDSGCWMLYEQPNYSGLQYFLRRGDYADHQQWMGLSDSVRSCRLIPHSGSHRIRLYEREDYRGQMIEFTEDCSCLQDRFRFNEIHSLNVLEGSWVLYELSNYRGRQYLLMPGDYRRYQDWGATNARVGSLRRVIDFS

“human αB crystallin (from UniProt P02511 1-175)” showed a Δfluorescence (γD crystallin), Thioflavin T, 72 h at 50° C (no chaperone: 888,803,840) [1] of 1.08e+09 and a Δfluorescence (Aβ), Thioflavin T, 72 h at 50° C (no chaperone: 1,324,974,048) [2] of 3.18e+08.
